Starred links: 1 amine or outer side, 2 acyl side, 3 side chain; linkers in the order of their positions; H or OH if unused. Non-standard residues stand in square brackets, D forms with d. Groups on a side chain read outwards from the residue. No end group written: not given here. *: point of attachment. C20 diacid = O=C(O)CCCCCCCCCCCCCCCCCCC(=O)*; C18 diacid = O=C(O)CCCCCCCCCCCCCCCCC(=O)*; γGlu = O=C(O)[C@H](CCC(=O)[*:2])N[*:1]; αMeF = C[C@](N)(Cc1ccccc1)C(=O)O; AEEA = NCCOCCOCC(=O)O; Aib = CC(C)(N)C(=O)O
Columns and labels:
[1] = molecular target: human GLP-1 receptor (hGLP-1R) (human, UniProt P43220 24-463); experiment: cell-based or functional assay
[2] = molecular target: human glucagon receptor (hGCGR) (human, UniProt P47871 26-477); experiment: cell-based or functional assay
Sequence of human glucagon receptor (hGCGR) (P47871 26-477): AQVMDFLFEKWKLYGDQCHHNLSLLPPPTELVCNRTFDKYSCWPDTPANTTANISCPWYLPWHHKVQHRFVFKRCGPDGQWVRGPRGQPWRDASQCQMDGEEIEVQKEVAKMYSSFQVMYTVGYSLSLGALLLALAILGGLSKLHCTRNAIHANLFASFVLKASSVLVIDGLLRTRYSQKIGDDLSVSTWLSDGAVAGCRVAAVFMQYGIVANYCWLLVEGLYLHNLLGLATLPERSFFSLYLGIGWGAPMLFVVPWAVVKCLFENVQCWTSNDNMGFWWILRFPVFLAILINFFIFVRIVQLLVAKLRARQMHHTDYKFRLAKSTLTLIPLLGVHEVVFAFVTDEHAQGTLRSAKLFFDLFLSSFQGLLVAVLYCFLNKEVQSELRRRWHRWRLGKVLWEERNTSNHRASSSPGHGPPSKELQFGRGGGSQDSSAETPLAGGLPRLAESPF

| Binder | hGLP-1R EC50 (pM) [1] [pM] | hGluc-R EC50 (pM) [2] [pM] |
| --- | --- | --- |
| H[Aib]QGTFTSDVSK[αMeF]LDTK([AEEA-AEEA-γGlu-C20 diacid])RAQDFVQWLLR[Aib]A-OH (N-terminus assumed; SMILES CC(C)C[C@H](NC(=O)[C@H](Cc1c[nH]c2ccccc12)NC(=O)[C@H](CCC(N)=O)NC(=O)[C@@H](NC(=O)[C@H](Cc1ccccc1)NC(=O)[C@H](CC(=O)O)NC(=O)[C@H](CCC(N)=O)NC(=O)[C@H](C)NC(=O)[C@H](CCCNC(=N)N)NC(=O)[C@H](CCCCNC(=O)COCCOCCNC(=O)COCCOCCNC(=O)CC[C@H](NC(=O)CCCCCCCCCCCCCCCCCCC(=O)O)C(=O)O)NC(=O)[C@@H](NC(=O)[C@H](CC(=O)O)NC(=O)[C@H](CC(C)C)NC(=O)[C@](C)(Cc1ccccc1)NC(=O)[C@H](CCCCN)NC(=O)[C@H](CO)NC(=O)[C@@H](NC(=O)[C@H](CC(=O)O)NC(=O)[C@H](CO)NC(=O)[C@@H](NC(=O)[C@H](Cc1ccccc1)NC(=O)[C@@H](NC(=O)CNC(=O)[C@H](CCC(N)=O)NC(=O)C(C)(C)NC(=O)[C@@H](N)Cc1c[nH]cn1)[C@@H](C)O)[C@@H](C)O)C(C)C)[C@@H](C)O)C(C)C)C(=O)N[C@@H](CC(C)C)C(=O)N[C@@H](CCCNC(=N)N)C(=O)NC(C)(C)C(=O)N[C@@H](C)C(=O)O) [Peptide 500] | 102 | 101 |
| H[Aib]QGTFTSDVSK[αMeF]LDTK([AEEA-AEEA-γGlu-C20 diacid])RAQDFVRWLLR[Aib]A-OH (N-terminus assumed; SMILES CC(C)C[C@H](NC(=O)[C@H](Cc1c[nH]c2ccccc12)NC(=O)[C@H](CCCNC(=N)N)NC(=O)[C@@H](NC(=O)[C@H](Cc1ccccc1)NC(=O)[C@H](CC(=O)O)NC(=O)[C@H](CCC(N)=O)NC(=O)[C@H](C)NC(=O)[C@H](CCCNC(=N)N)NC(=O)[C@H](CCCCNC(=O)COCCOCCNC(=O)COCCOCCNC(=O)CC[C@H](NC(=O)CCCCCCCCCCCCCCCCCCC(=O)O)C(=O)O)NC(=O)[C@@H](NC(=O)[C@H](CC(=O)O)NC(=O)[C@H](CC(C)C)NC(=O)[C@](C)(Cc1ccccc1)NC(=O)[C@H](CCCCN)NC(=O)[C@H](CO)NC(=O)[C@@H](NC(=O)[C@H](CC(=O)O)NC(=O)[C@H](CO)NC(=O)[C@@H](NC(=O)[C@H](Cc1ccccc1)NC(=O)[C@@H](NC(=O)CNC(=O)[C@H](CCC(N)=O)NC(=O)C(C)(C)NC(=O)[C@@H](N)Cc1c[nH]cn1)[C@@H](C)O)[C@@H](C)O)C(C)C)[C@@H](C)O)C(C)C)C(=O)N[C@@H](CC(C)C)C(=O)N[C@@H](CCCNC(=N)N)C(=O)NC(C)(C)C(=O)N[C@@H](C)C(=O)O) [Peptide 498] | 156 | 170 |
| H[Aib]QGTFTSDVSK[αMeF]LDTK([AEEA-AEEA-γGlu-C18 diacid])RAQDFVQWLLR[Aib]A-OH (N-terminus assumed; SMILES CC(C)C[C@H](NC(=O)[C@H](Cc1c[nH]c2ccccc12)NC(=O)[C@H](CCC(N)=O)NC(=O)[C@@H](NC(=O)[C@H](Cc1ccccc1)NC(=O)[C@H](CC(=O)O)NC(=O)[C@H](CCC(N)=O)NC(=O)[C@H](C)NC(=O)[C@H](CCCNC(=N)N)NC(=O)[C@H](CCCCNC(=O)COCCOCCNC(=O)COCCOCCNC(=O)CC[C@H](NC(=O)CCCCCCCCCCCCCCCCC(=O)O)C(=O)O)NC(=O)[C@@H](NC(=O)[C@H](CC(=O)O)NC(=O)[C@H](CC(C)C)NC(=O)[C@](C)(Cc1ccccc1)NC(=O)[C@H](CCCCN)NC(=O)[C@H](CO)NC(=O)[C@@H](NC(=O)[C@H](CC(=O)O)NC(=O)[C@H](CO)NC(=O)[C@@H](NC(=O)[C@H](Cc1ccccc1)NC(=O)[C@@H](NC(=O)CNC(=O)[C@H](CCC(N)=O)NC(=O)C(C)(C)NC(=O)[C@@H](N)Cc1c[nH]cn1)[C@@H](C)O)[C@@H](C)O)C(C)C)[C@@H](C)O)C(C)C)C(=O)N[C@@H](CC(C)C)C(=O)N[C@@H](CCCNC(=N)N)C(=O)NC(C)(C)C(=O)N[C@@H](C)C(=O)O) [Peptide 499] | 40.6 | 78.8 |

Continued, values first:

| hGLP-1R EC50 (pM) [1] [pM] | hGluc-R EC50 (pM) [2] [pM] | Binder |
| --- | --- | --- |
| 42.1 | 191 | H[Aib]QGTFTSDVSK[αMeF]LDTK([AEEA-AEEA-γGlu-C20 diacid])RAQDFVQWLLE[Aib]K-NH2 (N-terminus assumed; SMILES CC(C)C[C@H](NC(=O)[C@H](Cc1c[nH]c2ccccc12)NC(=O)[C@H](CCC(N)=O)NC(=O)[C@@H](NC(=O)[C@H](Cc1ccccc1)NC(=O)[C@H](CC(=O)O)NC(=O)[C@H](CCC(N)=O)NC(=O)[C@H](C)NC(=O)[C@H](CCCNC(=N)N)NC(=O)[C@H](CCCCNC(=O)COCCOCCNC(=O)COCCOCCNC(=O)CC[C@H](NC(=O)CCCCCCCCCCCCCCCCCCC(=O)O)C(=O)O)NC(=O)[C@@H](NC(=O)[C@H](CC(=O)O)NC(=O)[C@H](CC(C)C)NC(=O)[C@](C)(Cc1ccccc1)NC(=O)[C@H](CCCCN)NC(=O)[C@H](CO)NC(=O)[C@@H](NC(=O)[C@H](CC(=O)O)NC(=O)[C@H](CO)NC(=O)[C@@H](NC(=O)[C@H](Cc1ccccc1)NC(=O)[C@@H](NC(=O)CNC(=O)[C@H](CCC(N)=O)NC(=O)C(C)(C)NC(=O)[C@@H](N)Cc1c[nH]cn1)[C@@H](C)O)[C@@H](C)O)C(C)C)[C@@H](C)O)C(C)C)C(=O)N[C@@H](CC(C)C)C(=O)N[C@@H](CCC(=O)O)C(=O)NC(C)(C)C(=O)N[C@@H](CCCCN)C(N)=O) [Peptide 505] |
| 82.1 | 175 | H[Aib]QGTFTSDVSK[αMeF]LDTK([AEEA-AEEA-γGlu-C20 diacid])RARDFVQWLLR[Aib]A-OH (N-terminus assumed; SMILES CC(C)C[C@H](NC(=O)[C@H](Cc1c[nH]c2ccccc12)NC(=O)[C@H](CCC(N)=O)NC(=O)[C@@H](NC(=O)[C@H](Cc1ccccc1)NC(=O)[C@H](CC(=O)O)NC(=O)[C@H](CCCNC(=N)N)NC(=O)[C@H](C)NC(=O)[C@H](CCCNC(=N)N)NC(=O)[C@H](CCCCNC(=O)COCCOCCNC(=O)COCCOCCNC(=O)CC[C@H](NC(=O)CCCCCCCCCCCCCCCCCCC(=O)O)C(=O)O)NC(=O)[C@@H](NC(=O)[C@H](CC(=O)O)NC(=O)[C@H](CC(C)C)NC(=O)[C@](C)(Cc1ccccc1)NC(=O)[C@H](CCCCN)NC(=O)[C@H](CO)NC(=O)[C@@H](NC(=O)[C@H](CC(=O)O)NC(=O)[C@H](CO)NC(=O)[C@@H](NC(=O)[C@H](Cc1ccccc1)NC(=O)[C@@H](NC(=O)CNC(=O)[C@H](CCC(N)=O)NC(=O)C(C)(C)NC(=O)[C@@H](N)Cc1c[nH]cn1)[C@@H](C)O)[C@@H](C)O)C(C)C)[C@@H](C)O)C(C)C)C(=O)N[C@@H](CC(C)C)C(=O)N[C@@H](CCCNC(=N)N)C(=O)NC(C)(C)C(=O)N[C@@H](C)C(=O)O) [Peptide 502] |
| 26.5 | 75.6 | H[Aib]QGTFTSDVSK[αMeF]LDTK([AEEA-AEEA-γGlu-C18 diacid])RARDFVQWLLR[Aib]A-OH (N-terminus assumed; SMILES CC(C)C[C@H](NC(=O)[C@H](Cc1c[nH]c2ccccc12)NC(=O)[C@H](CCC(N)=O)NC(=O)[C@@H](NC(=O)[C@H](Cc1ccccc1)NC(=O)[C@H](CC(=O)O)NC(=O)[C@H](CCCNC(=N)N)NC(=O)[C@H](C)NC(=O)[C@H](CCCNC(=N)N)NC(=O)[C@H](CCCCNC(=O)COCCOCCNC(=O)COCCOCCNC(=O)CC[C@H](NC(=O)CCCCCCCCCCCCCCCCC(=O)O)C(=O)O)NC(=O)[C@@H](NC(=O)[C@H](CC(=O)O)NC(=O)[C@H](CC(C)C)NC(=O)[C@](C)(Cc1ccccc1)NC(=O)[C@H](CCCCN)NC(=O)[C@H](CO)NC(=O)[C@@H](NC(=O)[C@H](CC(=O)O)NC(=O)[C@H](CO)NC(=O)[C@@H](NC(=O)[C@H](Cc1ccccc1)NC(=O)[C@@H](NC(=O)CNC(=O)[C@H](CCC(N)=O)NC(=O)C(C)(C)NC(=O)[C@@H](N)Cc1c[nH]cn1)[C@@H](C)O)[C@@H](C)O)C(C)C)[C@@H](C)O)C(C)C)C(=O)N[C@@H](CC(C)C)C(=O)N[C@@H](CCCNC(=N)N)C(=O)NC(C)(C)C(=O)N[C@@H](C)C(=O)O) [Peptide 501] |
| 124 | 551 | H[Aib]QGTFTSDVSK[αMeF]LESK([AEEA-AEEA-γGlu-C20 diacid])RAQDFVRWLLE[Aib]K-OH (N-terminus assumed; SMILES CC(C)C[C@H](NC(=O)[C@H](Cc1c[nH]c2ccccc12)NC(=O)[C@H](CCCNC(=N)N)NC(=O)[C@@H](NC(=O)[C@H](Cc1ccccc1)NC(=O)[C@H](CC(=O)O)NC(=O)[C@H](CCC(N)=O)NC(=O)[C@H](C)NC(=O)[C@H](CCCNC(=N)N)NC(=O)[C@H](CCCCNC(=O)COCCOCCNC(=O)COCCOCCNC(=O)CC[C@H](NC(=O)CCCCCCCCCCCCCCCCCCC(=O)O)C(=O)O)NC(=O)[C@H](CO)NC(=O)[C@H](CCC(=O)O)NC(=O)[C@H](CC(C)C)NC(=O)[C@](C)(Cc1ccccc1)NC(=O)[C@H](CCCCN)NC(=O)[C@H](CO)NC(=O)[C@@H](NC(=O)[C@H](CC(=O)O)NC(=O)[C@H](CO)NC(=O)[C@@H](NC(=O)[C@H](Cc1ccccc1)NC(=O)[C@@H](NC(=O)CNC(=O)[C@H](CCC(N)=O)NC(=O)C(C)(C)NC(=O)[C@@H](N)Cc1c[nH]cn1)[C@@H](C)O)[C@@H](C)O)C(C)C)C(C)C)C(=O)N[C@@H](CC(C)C)C(=O)N[C@@H](CCC(=O)O)C(=O)NC(C)(C)C(=O)N[C@@H](CCCCN)C(=O)O) [Peptide 504] |
| 81.2 | 84.9 | H[Aib]QGTFTSDVSK[αMeF]LDTK([AEEA-AEEA-γGlu-C20 diacid])RAQDFVRWLLE[Aib]K-OH [Peptide 503] |
